According to the supplement of paper PMC5998384:

How the values were obtained:
HeLa Kyoto [1] = experiment: solubility in G1/S (NP-40 vs SDS abundance) (log2 ratio); higher = more soluble; settings: cell cycle stage: G1/S
HeLa Kyoto [2] = experiment: thermal stability score vs G1/S (z-score of summed log2 fold changes over temperatures); higher = more thermally stable than in G1/S
HeLa Kyoto [3] = experiment: melting temperature (median over replicates), in situ; higher = more thermally stable
HeLa Kyoto [4] = experiment: solubility change mitosis vs G1/S (difference of NP-40 vs SDS log2 ratios) (log2 ratio difference); higher = more soluble in mitosis
[5] = cell cycle stage: early G1 (4.5 h after nocodazole release)
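Wherever melting temperature (median over replicates), in situ is given: HeLa Kyoto cells synchronized by double thymidine or nocodazole block, proteins quantified by TMT10plex mass spectrometry, three independent biological replicates.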
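Wherever solubility change mitosis vs G1/S (difference of NP-40 vs SDS log2 ratios) is given: synchronized HeLa Kyoto cells (double thymidine block for G1/S, nocodazole release for mitosis), protein amounts in NP-40 versus SDS lysates quantified by mass spectrometry, three biological replicates.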
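Wherever solubility in G1/S (NP-40 vs SDS abundance) is given: HeLa Kyoto cells arrested at G1/S by double thymidine block, proteins quantified by TMT10plex mass spectrometry in mild NP-40 versus SDS extracts, three biological replicates.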
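Wherever thermal stability score vs G1/S (z-score of summed log2 fold changes over temperatures) is given: synchronized HeLa Kyoto cells, proteins quantified by TMT10plex mass spectrometry, three biological replicates, mitosis taken 0.5 h after nocodazole release, G1/S directly after double thymidine block.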

Chain of HSPA9 (chain, as listed by the source): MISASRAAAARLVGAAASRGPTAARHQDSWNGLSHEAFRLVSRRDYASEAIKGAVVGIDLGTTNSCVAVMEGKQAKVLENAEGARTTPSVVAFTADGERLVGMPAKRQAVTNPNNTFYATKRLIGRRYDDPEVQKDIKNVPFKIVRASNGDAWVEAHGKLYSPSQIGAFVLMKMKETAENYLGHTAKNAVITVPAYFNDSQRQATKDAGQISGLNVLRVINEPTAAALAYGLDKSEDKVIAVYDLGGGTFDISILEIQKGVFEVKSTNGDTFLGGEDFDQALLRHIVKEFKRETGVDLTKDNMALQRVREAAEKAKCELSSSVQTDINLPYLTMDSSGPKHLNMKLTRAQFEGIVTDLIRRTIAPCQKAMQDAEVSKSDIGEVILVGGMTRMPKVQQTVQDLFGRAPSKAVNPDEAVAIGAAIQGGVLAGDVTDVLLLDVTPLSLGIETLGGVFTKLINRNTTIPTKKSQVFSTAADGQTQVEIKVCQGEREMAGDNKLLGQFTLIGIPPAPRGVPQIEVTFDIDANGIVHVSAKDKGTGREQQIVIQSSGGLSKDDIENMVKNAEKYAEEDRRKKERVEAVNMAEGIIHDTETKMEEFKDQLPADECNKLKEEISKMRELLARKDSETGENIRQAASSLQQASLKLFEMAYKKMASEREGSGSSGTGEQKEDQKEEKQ
Chain of HACL1 (chain, as listed by the source): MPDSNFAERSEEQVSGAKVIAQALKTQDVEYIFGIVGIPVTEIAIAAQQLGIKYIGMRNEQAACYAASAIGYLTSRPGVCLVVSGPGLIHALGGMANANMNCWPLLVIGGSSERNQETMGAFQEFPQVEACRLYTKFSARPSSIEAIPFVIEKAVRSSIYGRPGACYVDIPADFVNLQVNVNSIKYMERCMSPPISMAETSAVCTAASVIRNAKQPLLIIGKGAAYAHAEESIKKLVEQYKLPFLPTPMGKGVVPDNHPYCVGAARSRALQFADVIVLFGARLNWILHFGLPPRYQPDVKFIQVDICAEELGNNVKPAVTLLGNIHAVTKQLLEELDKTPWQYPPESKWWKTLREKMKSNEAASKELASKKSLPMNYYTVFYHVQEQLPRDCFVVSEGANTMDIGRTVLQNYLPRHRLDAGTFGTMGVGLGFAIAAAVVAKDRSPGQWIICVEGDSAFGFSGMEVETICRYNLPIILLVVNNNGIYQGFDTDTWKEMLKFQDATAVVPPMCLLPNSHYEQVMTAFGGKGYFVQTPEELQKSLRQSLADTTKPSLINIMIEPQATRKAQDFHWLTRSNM
Chain of GALNT2 (chain, as listed by the source): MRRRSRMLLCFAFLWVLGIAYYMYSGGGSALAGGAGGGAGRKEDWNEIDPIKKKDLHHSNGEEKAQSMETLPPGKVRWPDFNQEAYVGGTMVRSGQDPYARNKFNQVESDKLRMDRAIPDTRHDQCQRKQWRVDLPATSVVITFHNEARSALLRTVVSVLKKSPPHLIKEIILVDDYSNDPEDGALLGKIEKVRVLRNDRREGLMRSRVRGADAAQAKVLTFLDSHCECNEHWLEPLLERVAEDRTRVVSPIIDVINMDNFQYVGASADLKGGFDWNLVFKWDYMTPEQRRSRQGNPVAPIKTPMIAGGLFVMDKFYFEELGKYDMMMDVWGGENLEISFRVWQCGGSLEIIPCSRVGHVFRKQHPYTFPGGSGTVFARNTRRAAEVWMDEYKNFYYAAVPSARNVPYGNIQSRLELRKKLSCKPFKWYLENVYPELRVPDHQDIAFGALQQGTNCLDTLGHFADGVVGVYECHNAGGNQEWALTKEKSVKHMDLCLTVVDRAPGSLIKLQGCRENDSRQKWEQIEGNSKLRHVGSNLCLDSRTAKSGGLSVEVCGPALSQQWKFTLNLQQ
Chain of GFM1 (chain, as listed by the source): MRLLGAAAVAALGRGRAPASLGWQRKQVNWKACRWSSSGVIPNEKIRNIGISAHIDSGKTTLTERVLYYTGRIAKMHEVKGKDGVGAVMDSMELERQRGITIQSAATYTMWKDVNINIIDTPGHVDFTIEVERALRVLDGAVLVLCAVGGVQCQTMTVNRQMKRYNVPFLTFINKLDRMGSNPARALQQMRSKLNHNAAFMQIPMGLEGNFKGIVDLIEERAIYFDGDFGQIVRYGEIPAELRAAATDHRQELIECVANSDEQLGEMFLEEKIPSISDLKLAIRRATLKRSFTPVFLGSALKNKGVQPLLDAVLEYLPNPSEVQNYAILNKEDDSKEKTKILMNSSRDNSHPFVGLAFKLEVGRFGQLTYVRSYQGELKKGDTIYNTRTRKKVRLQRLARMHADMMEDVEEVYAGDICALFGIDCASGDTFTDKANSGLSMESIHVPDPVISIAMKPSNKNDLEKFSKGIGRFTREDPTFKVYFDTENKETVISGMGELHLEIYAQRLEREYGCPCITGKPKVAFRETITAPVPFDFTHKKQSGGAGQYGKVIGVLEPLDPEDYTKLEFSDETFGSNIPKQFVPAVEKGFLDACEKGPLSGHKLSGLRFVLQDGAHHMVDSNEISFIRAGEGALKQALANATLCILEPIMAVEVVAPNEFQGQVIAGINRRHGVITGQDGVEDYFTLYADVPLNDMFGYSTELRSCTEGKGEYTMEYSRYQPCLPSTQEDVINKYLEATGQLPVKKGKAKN
Chain of IDH3B (chain, as listed by the source): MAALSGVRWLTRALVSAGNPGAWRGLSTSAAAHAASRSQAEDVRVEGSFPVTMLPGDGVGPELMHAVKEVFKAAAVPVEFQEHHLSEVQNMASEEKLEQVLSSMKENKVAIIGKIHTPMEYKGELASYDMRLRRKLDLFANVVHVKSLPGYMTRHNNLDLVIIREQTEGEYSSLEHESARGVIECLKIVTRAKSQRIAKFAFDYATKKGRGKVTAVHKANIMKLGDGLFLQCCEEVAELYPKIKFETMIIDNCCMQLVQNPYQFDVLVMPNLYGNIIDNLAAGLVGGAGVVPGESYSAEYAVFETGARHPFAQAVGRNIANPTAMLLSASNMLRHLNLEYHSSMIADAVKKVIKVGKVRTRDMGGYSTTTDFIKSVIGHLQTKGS
Chain of EZH2 (chain, as listed by the source): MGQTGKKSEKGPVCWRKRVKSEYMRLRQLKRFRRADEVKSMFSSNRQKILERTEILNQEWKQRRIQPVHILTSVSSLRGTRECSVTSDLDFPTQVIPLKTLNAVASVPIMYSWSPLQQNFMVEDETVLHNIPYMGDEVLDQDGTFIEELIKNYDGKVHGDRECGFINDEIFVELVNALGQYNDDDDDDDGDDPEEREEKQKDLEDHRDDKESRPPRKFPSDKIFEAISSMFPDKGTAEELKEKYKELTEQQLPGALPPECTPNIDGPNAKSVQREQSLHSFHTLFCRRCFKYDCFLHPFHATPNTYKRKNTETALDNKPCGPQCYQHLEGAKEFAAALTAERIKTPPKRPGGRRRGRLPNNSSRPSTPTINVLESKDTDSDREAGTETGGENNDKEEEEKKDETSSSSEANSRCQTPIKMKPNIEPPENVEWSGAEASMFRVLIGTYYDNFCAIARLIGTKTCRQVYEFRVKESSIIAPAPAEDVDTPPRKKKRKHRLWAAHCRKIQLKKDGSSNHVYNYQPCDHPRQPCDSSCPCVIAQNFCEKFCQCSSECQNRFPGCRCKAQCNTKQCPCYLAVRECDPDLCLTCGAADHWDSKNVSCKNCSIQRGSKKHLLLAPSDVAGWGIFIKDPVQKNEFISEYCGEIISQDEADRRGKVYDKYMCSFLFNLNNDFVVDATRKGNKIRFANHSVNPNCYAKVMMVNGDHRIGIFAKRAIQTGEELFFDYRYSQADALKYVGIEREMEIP
Chain of CTDSPL2 (chain, as listed by the source): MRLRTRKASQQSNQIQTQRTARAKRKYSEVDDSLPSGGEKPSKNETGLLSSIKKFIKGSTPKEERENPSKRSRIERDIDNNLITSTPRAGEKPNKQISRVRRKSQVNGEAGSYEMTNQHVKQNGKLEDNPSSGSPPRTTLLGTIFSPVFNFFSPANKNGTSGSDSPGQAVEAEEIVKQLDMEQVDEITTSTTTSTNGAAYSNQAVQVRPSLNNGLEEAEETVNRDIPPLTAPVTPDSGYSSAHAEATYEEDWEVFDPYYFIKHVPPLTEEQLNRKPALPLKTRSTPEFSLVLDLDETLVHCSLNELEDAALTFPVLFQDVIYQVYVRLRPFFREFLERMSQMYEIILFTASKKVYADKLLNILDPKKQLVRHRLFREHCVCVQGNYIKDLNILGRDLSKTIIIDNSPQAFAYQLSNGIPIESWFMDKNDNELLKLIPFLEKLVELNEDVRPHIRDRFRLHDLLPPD
Chain of FXR2 (chain, as listed by the source): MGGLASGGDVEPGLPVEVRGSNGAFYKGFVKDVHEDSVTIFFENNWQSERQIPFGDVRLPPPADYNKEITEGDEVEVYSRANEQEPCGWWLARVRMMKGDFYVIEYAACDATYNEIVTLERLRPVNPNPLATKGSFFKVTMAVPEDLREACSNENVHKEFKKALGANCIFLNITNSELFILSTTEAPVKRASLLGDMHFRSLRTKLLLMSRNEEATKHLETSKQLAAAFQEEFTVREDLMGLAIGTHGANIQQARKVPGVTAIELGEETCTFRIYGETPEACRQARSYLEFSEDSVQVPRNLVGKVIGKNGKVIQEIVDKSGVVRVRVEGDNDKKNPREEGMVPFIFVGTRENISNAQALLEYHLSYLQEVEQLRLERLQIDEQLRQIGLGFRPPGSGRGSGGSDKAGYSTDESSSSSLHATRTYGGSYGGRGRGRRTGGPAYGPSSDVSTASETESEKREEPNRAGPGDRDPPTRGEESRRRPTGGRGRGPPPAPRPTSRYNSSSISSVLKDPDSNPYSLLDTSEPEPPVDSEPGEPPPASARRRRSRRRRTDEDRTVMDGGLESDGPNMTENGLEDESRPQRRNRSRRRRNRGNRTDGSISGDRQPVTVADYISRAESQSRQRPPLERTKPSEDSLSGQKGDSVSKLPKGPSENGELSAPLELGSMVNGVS

Substance | solubility in G1/S (log2) (HeLa Kyoto [1]) | thermal stability score (HeLa Kyoto [2]; [5]) | thermal stability score (HeLa Kyoto [2]; cell cycle stage: mitosis) | melting temperature (HeLa Kyoto [3]; cell cycle stage: G1/S) [°C] | melting temperature (HeLa Kyoto [3]; cell cycle stage: mitosis) [°C] | solubility change mitosis (log2) (HeLa Kyoto [4])
CPS1 | 0.0669 | -0.953 | -3.38 | 53.1 | 53.2 | -0.13
CTDSPL2 | -0.599 | 2.66 | 4.58 | 48.4 | 48.7 | 0.46
CTSD | 0.272 | 1.02 | -1.76 | 56.2 | 57 | -0.113
CUL7 | 0.0417 | 0.604 | 0.125 |  | 49.1 | -0.279
CXORF56 | -0.0564 | -1.87 | -1.28 | 50.6 | 51.3 | 0.1
DNAJA1 | -0.016 | -1.37 | -1.92 | 51.8 | 52.1 | 0.000386
DNAJB4 | 0.0979 | 1.4 | 0.454 | 49.3 | 49.5 | 0.0771
DNAJC21 | -0.451 | 2.06 | 1.36 | 50.7 | 49.9 | 0.168
DNMBP | 0.00933 | -0.0907 | 0.88 | 48.8 | 49 | -0.133
DOCK1 | -0.195 | 0.388 | 0.518 | 50.7 | 50 | -0.0711
DST | -0.363 | 0.147 | 1.16 | 49.1 | 49.2 | 0.045
EIF2AK4 | -0.218 | 0.686 | 0.568 | 50.8 | 50.3 | -0.0694
EP300 | -0.0947 | -0.227 | 1.93 | 50.8 | 51.6 | -0.0909
EZH2 | -0.621 | 2.26 | 4 | 49 | 49.9 | 0.156
FAM91A1 | -0.0537 | -0.197 | -1.55 | 51.9 | 51.3 | -0.101
FLAD1 | 0.272 | -0.00796 | -0.288 | 51.8 | 51.6 | -0.111
FLNB | -0.0724 | -0.118 | 0.998 | 51.8 | 51.3 | -0.0508
FXR2 | -1.13 | -1.1 | -0.108 | 52.6 | 51.7 | 0.38
GALK1 | 0.313 | 3.18 | 1.65 | 52.6 | 52.7 | -0.117
GALNT2 | -0.0412 | 9.37 | 17.4 | 51.6 | 52 | -0.0991
GEMIN5 | -0.199 | -0.261 | 1.19 | 49.4 | 49.7 | -0.155
GFM1 | 0.0415 | -0.899 | 0.337 | 50.3 | 50.5 | -0.108
HACL1 | -0.0836 | -1.09 | -0.922 | 56.6 | 56.1 | -0.168
HEATR1 | -1.01 | 1.16 | 2.97 | 48.4 | 49.2 | 0.265

Substance | solubility in G1/S (log2) (HeLa Kyoto [1]) | thermal stability score (HeLa Kyoto [2]; [5]) | thermal stability score (HeLa Kyoto [2]; cell cycle stage: mitosis) | melting temperature (HeLa Kyoto [3]; cell cycle stage: G1/S) [°C] | melting temperature (HeLa Kyoto [3]; cell cycle stage: mitosis) [°C] | solubility change mitosis (log2) (HeLa Kyoto [4])
HELZ | 0.00285 | -0.338 | -0.16 | 52.3 | 52.3 | -0.131
HERC1 | -0.169 | -0.377 | -0.404 | 51.7 | 51.3 | -0.126
HNRNPK | 0.317 | -0.521 | 2.21 | 49.7 | 49.9 | 0.0123
HSPA2 | 0.111 | 0.118 | 1.01 | 53.2 | 52.4 | -0.0491
HSPA9 | 0.447 | 2.31 | -0.387 | 53.1 | 52.8 | -0.0046
HTT | -0.145 | -0.714 | -1.14 | 50.6 | 50.7 | -0.0881
IDH3B | 0.298 | -1.39 | -2 | 54.2 | 53.5 | -0.00994
IMPDH1 | 0.0289 | 5.12 | 3.19 | 51.1 | 51.6 | -0.176
ITCH | -0.468 | 0.594 | 0.999 | 49.8 | 51.6 | 0.0566
ITPR1 | -0.349 | 0.726 | 1.96 | 49.8 | 50.2 | -0.0166
ITPR2 | -0.52 | -0.335 | 0.355 | 49.6 | 50.4 | 0.131
ITSN2 | -0.159 | 0.178 | 0.129 | 51.9 | 49.1 | -0.0144
KIAA0930 | -0.0317 | 0.34 | 0.505 | 52.6 | 52.3 | -0.03
KIDINS220 | -0.21 | -0.795 | -1.61 | 52.9 | 52 | 0.00102
LAMB1 | 0.0818 | 3.04 | 4.45 | 53.6 | 54.2 | -0.0866
LDLR | -0.34 | -1.81 | -1.47 | 56.6 | 56.6 | -0.00467
LMO7 | -1.14 | 3.45 | 3.47 | 51 | 51.1 | 0.694
MAAAAAAAAAAGAAGGRGSGPGRRRHLVPGAGGEAGEGAPGGAGDYGNGLESEELEPEELLLEPEPEPEPEEEPPRPRAPPGAPGPGPGSGAPGSQEEEEEPGLVEGDPGDGAIEDPELEAIKARVREMEEEAEKLKELQNEVEKQMNMSPPPGNAGPVIMSIEEKMEADARSIYVGNVDYGATAEELEAHFHGCGSVNRVTILCDKFSGHPKGFAYIEFSDKESVRTSLALDESLFRGRQIKVIPKRTNRPGISTTDRGFPRARYRARTTNYNSSRSRFYSGFNSRPRGRVYRGRARATSWYSPY [PABPN1] | 0.016 | 1.6 | 2.2 | 48.9 | 50.5 | 0.441
MAAAAAAGPSPGSGPGDSPEGPEGEAPERRRKAHGMLKLYYGLSEGEAAGRPAGPDPLDPTDLNGAHFDPEVYLDKLRRECPLAQLMDSETDMVRQIRALDSDMQTLVYENYNKFISATDTIRKMKNDFRKMEDEMDRLATNMAVITDFSARISATLQDRHERITKLAGVHALLRKLQFLFELPSRLTKCVELGAYGQAVRYQGRAQAVLQQYQHLPSFRAIQDDCQVITARLAQQLRQRFREGGSGAPEQAECVELLLALGEPAEELCEEFLAHARGRLEKELRNLEAELGPSPPAPDVLEFTDHGGSGFVGGLCQVAAAYQELFAAQGPAGAEKLAAFARQLGSRYFALVERRLAQEQGGGDNSLLVRALDRFHRRLRAPGALLAAAGLADAATEIVERVARERLGHHLQGLRAAFLGCLTDVRQALAAPRVAGKEGPGLAELLANVASSILSHIKASLAAVHLFTAKEVSFSNKPYFRGEFCSQGVREGLIVGFVHSMCQTAQSFCDSPGEKGGATPPALLLLLSRLCLDYETATISYILTLTDEQFLVQDQFPVTPVSTLCAEARETARRLLTHYVKVQGLVISQMLRKSVETRDWLSTLEPRNVRAVMKRVVEDTTAIDVQVGLLYEEGVRKAQSSDSSKRTFSVYSSSRQQGRYAPSYTPSAPMDTNLLSNIQKLFSERIDVFSPVEFNKVSVLTGIIKISLKTLLECVRLRTFGRFGLQQVQVDCHFLQLYLWRFVADEELVHLLLDEVVASAALRCPDPVPMEPSVVEVICERG [VPS51] | 0.0503 | 0.245 | 0.774 | 49.3 | 49.3 | -0.137
MAAAAAAVGPGAGGAGSAVPGGAGPCATVSVFPGARLLTIGDANGEIQRHAEQQALRLEVRAGPDSAGIALYSHEDVCVFKCSVSRETECSRVGKQSFIITLGCNSVLIQFATPNDFCSFYNILKTCRGHTLERSVFSERTEESSAVQYFQFYGYLSQQQNMMQDYVRTGTYQRAILQNHTDFKDKIVLDVGCGSGILSFFAAQAGARKIYAVEASTMAQHAEVLVKSNNLTDRIVVIPGKVEEVSLPEQVDIIISEPMGYMLFNERMLESYLHAKKYLKPSGNMFPTIGDVHLAPFTDEQLYMEQFTKANFWYQPSFHGVDLSALRGAAVDEYFRQPVVDTFDIRILMAKSVKYTVNFLEAKEGDLHRIEIPFKFHMLHSGLVHGLAFWFDVAFIGSIMTVWLSTAPTEPLTHWYQVRCLFQSPLFAKAGDTLSGTCLLIANKRQSYDISIVAQVDQTGSKSSNLLDLKNPFFRYTGTTPSPPPGSHYTSPSENMWNTGSTYNLSSGMAVAGMPTAYDLSSVIASGSSVGHNNLIPLANTGIVNHTHSRMGSIMSTGIVQGSSGAQGSGGGSTSAHYAVNSQFTMGGPAISMASPMSIPTNTMHYGS [CARM1] | -0.0215 | -1.1 | -1.42 | 56 | 56.3 | -0.216
MAAAAARVVLSSAARRRLWGFSESLLIRGAAGRSLYFGENRLRSTQAATQVVLNVPETRVTCLESGLRVASEDSGLSTCTVGLWIDAGSRYENEKNNGTAHFLEHMAFKGTKKRSQLDLELEIENMGAHLNAYTSREQTVYYAKAFSKDLPRAVEILADIIQNSTLGEAEIERERGVILREMQEVETNLQEVVFDYLHATAYQNTALGRTILGPTENIKSISRKDLVDYITTHYKGPRIVLAAAGGVSHDELLDLAKFHFGDSLCTHKGEIPALPPCKFTGSEIRVRDDKMPLAHLAIAVEAVGWAHPDTICLMVANTLIGNWDRSFGGGMNLSSKLAQLTCHGNLCHSFQSFNTSYTDTGLWGLYMVCESSTVADMLHVVQKEWMRLCTSVTESEVARARNLLKTNMLLQLDGSTPICEDIGRQMLCYNRRIPIPELEARIDAVNAETIREVCTKYIYNRSPAIAAVGPIKQLPDFKQIRSNMCWLRD [PMPCB] | 0.179 | -0.694 | -1.33 | 51.7 | 52.1 | -0.0473
MAAAAARWNHVWVGTETGILKGVNLQRKQAANFTAGGQPRREEAVSALCWGTGGETQMLVGCADRTVKHFSTEDGIFQGQRHCPGGEGMFRGLAQADGTLITCVDSGILRVWHDKDKDTSSDPLLELRVGPGVCRMRQDPAHPHVVATGGKENALKIWDLQGSEEPVFRAKNVRNDWLDLRVPIWDQDIQFLPGSQKLVTCTGYHQVRVYDPASPQRRPVLETTYGEYPLTAMTLTPGGNSVIVGNTHGQLAEIDLRQGRLLGCLKGLAGSVRGLQCHPSKPLLASCGLDRVLRIHRIQNPRGLEHKVYLKSQLNCLLLSGRDNWEDEPQEPQEPNKVPLEDTETDELWASLEAAAKRKLSGLEQPQGALQTRRRKKKRPGSTSP [WDR74] | -0.848 | -0.813 | -1.48 |  | 52 | 0.631
MAAAAASAPQQLSDEELFSQLRRYGLSPGPVTESTRPVYLKKLKKLREEEQQQHRSGGRGNKTRNSNNNNTAAATVAAAGPAAAAAAGMGVRPVSGDLSYLRTPGGLCRISASGPESLLGGPGGASAAPAAGSKVLLGFSSDESDVEASPRDQAGGGGRKDRASLQYRGLKAPPAPLAASEVTNSNSAERRKPHSWWGARRPAGPELQTPPGKDGAVEDEEGEGEDGEERDPETEEPLWASRTVNGSRLVPYSCRENYSDSEEEDDDDVASSRQVLKDDSLSRHRPRRTHSKPLPPLTAKSAGGRLETSVQGGGGLAMNDRAAAAGSLDRSRNLEEAAAAEQGGGCDQVDSSPVPRYRVNAKKLTPLLPPPLTDMDSTLDSSTGSLLKTNNHIGGGAFSVDSPRIYSNSLPPSAAVAASSSLRINHANHTGSNHTYLKNTYNKPKLSEPEEELLQQFKREEVSPTGSFSAHYLSMFLLTAACLFFLILGLTYLGMRGTGVSEDGELSIENPFGETFGKIQESEKTLMMNTLYKLHDRLAQLAGDHECGSSSQRTLSVQEAAAYLKDLGPEYEGIFNTSLQWILENGKDVGIRCVGFGPEEELTNITDVQFLQSTRPLMSFWCRFRRAFVTVTHRLLLLCLGVVMVCVVLRYMKYRWTKEEEETRQMYDMVVKIIDVLRSHNEACQENKDLQPYMPIPHVRDSLIQPHDRKKMKKVWDRAVDFLAANESRVRTETRRIGGADFLVWRWIQPSASCDKILVIPSKVWQGQAFHLDRRNSPPNSLTPCLKIRNMFDPVMEIGDQWHLAIQEAILEKCSDNDGIVHIAVDKNSREGCVYVKCLSPEYAGKAFKALHGSWFDGKLVTVKYLRLDRYHHRFPQALTSNTPLKPSNKHMNSMSHLRLRTGLTNSQGSS [LEMD3] | 0.0762 | 2.33 | 3.33 | 49.1 | 50.5 | -0.0382
